The supplement of paper PMC7125110
± gives the standard error. This sample holds only a part of the variants without activity.

B1: glmS ribozyme (parent)
chain: AUAAAAGCGCCAGAACUACAGAAAUGUAGUUGACGAGGAGGAGGUUUAUCGAAUUUUCGGCGGAUGCCUCCAAA

Assays:
Settings in all cases: with glucosamine-6-phosphate
[1] = variants of: B1; experiment: self-cleavage kobs at 40 uM GlcN6P; higher = faster cleavage; RNA array
Summary of the method: (§1)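 Barcoded ribozyme variants were transcribed in situ on sequenced MiSeq chips by E. coli RNA polymerase. At 37 °C, a hybridised Cy3 probe tracked them while glucosamine-6-phosphate (40 μM to 10 mM) in HEPES/KCl/Mg(OAc)2 buffer flowed in and tiles were imaged over ~14 h. Per-tile medians of signals normalised to baseline and to non-cleaving reference variants were fit to one- or two-exponential decays, giving kobs. kcat and KM came from weighted Michaelis–Menten fits across concentrations.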

[2] = variants of: B1; experiment: self-cleavage kobs at 160 uM GlcN6P; higher = faster cleavage; RNA array
Summary of the method: as §1

[3] = variants of: B1; experiment: self-cleavage kobs at 640 uM GlcN6P; higher = faster cleavage; RNA array
Summary of the method: as §1

[4] = variants of: B1; experiment: self-cleavage kobs at 10000 uM GlcN6P; higher = faster cleavage; RNA array
Summary of the method: as §1

[5] = variants of: B1; experiment: self-cleavage kobs at 2500 uM GlcN6P; higher = faster cleavage; RNA array
Summary of the method: as §1

G32U A36G U45C C68G
self-cleavage kobs at 40 uM GlcN6P [1]: < 1e-05 s⁻¹

C34A G63U
self-cleavage kobs at 40 uM GlcN6P [1]: < 1e-05 s⁻¹
self-cleavage kobs at 160 uM GlcN6P [2]: < 1e-05 s⁻¹
self-cleavage kobs at 640 uM GlcN6P [3]: < 1e-05 s⁻¹
self-cleavage kobs at 10000 uM GlcN6P [4]: < 1e-05 s⁻¹

G32U G44U U45A
self-cleavage kobs at 40 uM GlcN6P [1]: < 1e-05 s⁻¹

A33G G40U G43A U49A C58U
self-cleavage kobs at 40 uM GlcN6P [1]: < 1e-05 s⁻¹
self-cleavage kobs at 10000 uM GlcN6P [4]: < 1e-05 s⁻¹

G32U U46G C61U
self-cleavage kobs at 40 uM GlcN6P [1]: < 1e-05 s⁻¹
self-cleavage kobs at 2500 uM GlcN6P [5]: < 1e-05 s⁻¹
self-cleavage kobs at 10000 uM GlcN6P [4]: < 1e-05 s⁻¹

G32C A36U
self-cleavage kobs at 40 uM GlcN6P [1]: < 1e-05 s⁻¹
self-cleavage kobs at 160 uM GlcN6P [2]: < 1e-05 s⁻¹
self-cleavage kobs at 640 uM GlcN6P [3]: < 1e-05 s⁻¹
self-cleavage kobs at 2500 uM GlcN6P [5]: < 1e-05 s⁻¹

C34A G35U G37A U49A U56C
self-cleavage kobs at 40 uM GlcN6P [1]: < 1e-05 s⁻¹
self-cleavage kobs at 640 uM GlcN6P [3]: < 1e-05 s⁻¹
self-cleavage kobs at 2500 uM GlcN6P [5]: < 1e-05 s⁻¹
self-cleavage kobs at 10000 uM GlcN6P [4]: < 1e-05 s⁻¹

G32U A39U G60A C67U
self-cleavage kobs at 40 uM GlcN6P [1]: < 1e-05 s⁻¹
self-cleavage kobs at 10000 uM GlcN6P [4]: < 1e-05 s⁻¹

C34G A53U G63U A64G
self-cleavage kobs at 40 uM GlcN6P [1]: < 1e-05 s⁻¹
self-cleavage kobs at 10000 uM GlcN6P [4]: < 1e-05 s⁻¹

G32C G43C G51U
self-cleavage kobs at 40 uM GlcN6P [1]: < 1e-05 s⁻¹
self-cleavage kobs at 10000 uM GlcN6P [4]: < 1e-05 s⁻¹

A33G G44U C67U
self-cleavage kobs at 40 uM GlcN6P [1]: < 1e-05 s⁻¹
self-cleavage kobs at 10000 uM GlcN6P [4]: < 1e-05 s⁻¹

A33G A36G A39C U45A
self-cleavage kobs at 40 uM GlcN6P [1]: < 1e-05 s⁻¹
self-cleavage kobs at 160 uM GlcN6P [2]: < 1e-05 s⁻¹
self-cleavage kobs at 2500 uM GlcN6P [5]: < 1e-05 s⁻¹
self-cleavage kobs at 10000 uM GlcN6P [4]: < 1e-05 s⁻¹

A33U G51C G60U G63U
self-cleavage kobs at 40 uM GlcN6P [1]: < 1e-05 s⁻¹

G32U G38C U55A
self-cleavage kobs at 40 uM GlcN6P [1]: < 1e-05 s⁻¹
self-cleavage kobs at 640 uM GlcN6P [3]: < 1e-05 s⁻¹
self-cleavage kobs at 10000 uM GlcN6P [4]: < 1e-05 s⁻¹

G32C C70G C71G
self-cleavage kobs at 40 uM GlcN6P [1]: 7.5e-05 ± 3.3e-05 s⁻¹
self-cleavage kobs at 640 uM GlcN6P [3]: 0.000291 ± 9.2e-05 s⁻¹
self-cleavage kobs at 2500 uM GlcN6P [5]: 7.37e-05 ± 3.4e-05 s⁻¹

G32C U47G U55G U65C U69G
self-cleavage kobs at 40 uM GlcN6P [1]: 0.000245 ± 8.5e-05 s⁻¹
self-cleavage kobs at 10000 uM GlcN6P [4]: 0.000357 ± 9.5e-05 s⁻¹

G32A C50U
self-cleavage kobs at 40 uM GlcN6P [1]: < 1e-05 s⁻¹
self-cleavage kobs at 640 uM GlcN6P [3]: < 1e-05 s⁻¹

C34U A64C
self-cleavage kobs at 40 uM GlcN6P [1]: < 1e-05 s⁻¹
self-cleavage kobs at 160 uM GlcN6P [2]: < 1e-05 s⁻¹
self-cleavage kobs at 10000 uM GlcN6P [4]: < 1e-05 s⁻¹

C34A G40U G66A
self-cleavage kobs at 40 uM GlcN6P [1]: < 1e-05 s⁻¹
self-cleavage kobs at 160 uM GlcN6P [2]: < 1e-05 s⁻¹
self-cleavage kobs at 10000 uM GlcN6P [4]: < 1e-05 s⁻¹

A33G G59C
self-cleavage kobs at 40 uM GlcN6P [1]: < 1e-05 s⁻¹
self-cleavage kobs at 160 uM GlcN6P [2]: < 1e-05 s⁻¹
self-cleavage kobs at 640 uM GlcN6P [3]: < 1e-05 s⁻¹
self-cleavage kobs at 2500 uM GlcN6P [5]: < 1e-05 s⁻¹
self-cleavage kobs at 10000 uM GlcN6P [4]: < 1e-05 s⁻¹

C34U C61A C67G
self-cleavage kobs at 40 uM GlcN6P [1]: 0.00044 ± 0.00014 s⁻¹
self-cleavage kobs at 640 uM GlcN6P [3]: 0.000318 ± 0.00013 s⁻¹

A33C G37C
self-cleavage kobs at 40 uM GlcN6P [1]: < 1e-05 s⁻¹
self-cleavage kobs at 640 uM GlcN6P [3]: < 1e-05 s⁻¹
self-cleavage kobs at 2500 uM GlcN6P [5]: < 1e-05 s⁻¹

A33C C68A
self-cleavage kobs at 40 uM GlcN6P [1]: < 1e-05 s⁻¹
self-cleavage kobs at 640 uM GlcN6P [3]: < 1e-05 s⁻¹
self-cleavage kobs at 2500 uM GlcN6P [5]: < 1e-05 s⁻¹
self-cleavage kobs at 10000 uM GlcN6P [4]: < 1e-05 s⁻¹

U31G A42C C70U
self-cleavage kobs at 40 uM GlcN6P [1]: < 1e-05 s⁻¹

A33G C34U C68U
self-cleavage kobs at 40 uM GlcN6P [1]: < 1e-05 s⁻¹
